This is an account of results in patent US20250011363A1, “OPTIMIZED SHORTENED PEPTIDE THAT BINDS TO ACETYLCHOLINE RECEPTOR, AND USE THEREOF” (SKINMED CO., LTD., priority 2021, published 2025).

Assay [1] deals with acetylcholine receptor. In words: SPR, peptide at 10 uM, acetylcholine receptor immobilized on chip. A general note: In SPR one partner is held on a chip, and binding of the other changes the refractive index at the surface.
In assay [2] the target is acetylcholine receptor. As to the kind of experiment: SPR, AchR immobilized on chip.

B1: 5mer-643 (peptide)
peptide: KHDGR
On to B1, for which the Binding affinity (RU) in the assay with acetylcholine receptor [1] is 28 RU.

B2: 5mer-638 (peptide)
peptide: KHCIR
In the assay with acetylcholine receptor [1], B2 yielded a Binding affinity (RU) of 33 RU.

B3: RRQRRT (peptide)
peptide: RRQRRT
B3 registered a Binding affinity (relative to RRQRR) (relative value to the RRQRR sequence) with acetylcholine receptor [2] of 117.

B4: 5mer-641 (peptide)
peptide: RITWK
Molecule B4 displayed a Binding affinity (RU) in the assay with acetylcholine receptor [1] of 22 RU.

B5: LRRQRR (peptide)
peptide: LRRQRR
B5: the Binding affinity (relative to RRQRR) (relative value to the RRQRR sequence) in the assay with acetylcholine receptor [2] was found to be 144.

B6: RRQRRV (peptide)
peptide: RRQRRV
With B6, the Binding affinity (relative to RRQRR) (relative value to the RRQRR sequence) with acetylcholine receptor [2] came to 120.

B7: RRQRRE (peptide)
peptide: RRQRRE
For the molecule B7, the Binding affinity (relative to RRQRR) (relative value to the RRQRR sequence) in the assay with acetylcholine receptor [2] worked out at 37.

B8: RRGVRRG (peptide)
peptide: RRGVRRG
B8 showed a Binding affinity (relative to RRGVRR) (value relative to the RRGVRR sequence) with acetylcholine receptor [2] of 105.

B9: ARRQRR (peptide)
peptide: ARRQRR
Turning to B9, the Binding affinity (relative to RRQRR) (relative value to the RRQRR sequence) with acetylcholine receptor [2] was 129.

B10: RRQRRQ (peptide)
peptide: RRQRRQ
In the case of B10, in the assay with acetylcholine receptor [2], the Binding affinity (relative to RRQRR) (relative value to the RRQRR sequence) was 101.

B11: 5mer-948 (peptide)
peptide: KDSFK
In the case of B11, in the assay with acetylcholine receptor [1], the Binding affinity (RU) was 18 RU.

B12: 5mer-646 (peptide)
peptide: KDTKR
In turn, B12 had a Binding affinity (RU) in the assay with acetylcholine receptor [1] of 16 RU.

B13: 5mer-942 (peptide)
peptide: RPSDR
In the assay with acetylcholine receptor [1], B13 showed a Binding affinity (RU) of 11 RU.

B14: NRRQRR (peptide)
peptide: NRRQRR
Take B14: the Binding affinity (relative to RRQRR) (relative value to the RRQRR sequence) in the assay with acetylcholine receptor [2] was 113.

B15: IRRQRR (peptide)
peptide: IRRQRR
B15 had a Binding affinity (relative to RRQRR) (relative value to the RRQRR sequence) with acetylcholine receptor [2] of 121.

B16: CRRQRR (peptide)
peptide: CRRQRR
In turn, B16 returned a Binding affinity (relative to RRQRR) (relative value to the RRQRR sequence) in the assay with acetylcholine receptor [2] of 123.

B17: 5mer-647 (peptide)
peptide: KHTVK
B17 yielded a Binding affinity (RU) in the assay with acetylcholine receptor [1] of 29 RU.

B18: SRRQRR (peptide)
peptide: SRRQRR
B18 yielded a Binding affinity (relative to RRQRR) (relative value to the RRQRR sequence) with acetylcholine receptor [2] of 121.

B19: RRQRRP (peptide)
peptide: RRQRRP
In turn, B19 registered a Binding affinity (relative to RRQRR) (relative value to the RRQRR sequence) with acetylcholine receptor [2] of 137.

B20: DRRQRR (peptide)
peptide: DRRQRR
In the assay with acetylcholine receptor [2], B20 gave a Binding affinity (relative to RRQRR) (relative value to the RRQRR sequence) of 163.

B21: QRRQRR (peptide)
peptide: QRRQRR
The molecule B21 showed a Binding affinity (relative to RRQRR) (relative value to the RRQRR sequence) with acetylcholine receptor [2] of 105.

B22: RRQRRI (peptide)
peptide: RRQRRI
In turn, B22 registered a Binding affinity (relative to RRQRR) (relative value to the RRQRR sequence) with acetylcholine receptor [2] of 133.

B23: RRRQRR (peptide)
peptide: RRRQRR
For the molecule B23, the Binding affinity (relative to RRQRR) (relative value to the RRQRR sequence) in the assay with acetylcholine receptor [2] was 189.

B24: 5mer-939 (peptide)
peptide: KMHAR
B24: the Binding affinity (RU) with acetylcholine receptor [1] was determined as 24 RU.

B25: 5mer-645 (peptide)
peptide: RHKDK
For B25, the Binding affinity (RU) with acetylcholine receptor [1] amounted to 20 RU.

B26: RRQRRM (peptide)
peptide: RRQRRM
As to B26, the Binding affinity (relative to RRQRR) (relative value to the RRQRR sequence) with acetylcholine receptor [2] is 122.

B27: ERRQRR (peptide)
peptide: ERRQRR
In turn, B27 registered a Binding affinity (relative to RRQRR) (relative value to the RRQRR sequence) with acetylcholine receptor [2] of 147.

B28: RRQRRG (peptide)
peptide: RRQRRG
For the molecule B28, in the assay with acetylcholine receptor [2], the Binding affinity (relative to RRQRR) (relative value to the RRQRR sequence) turned out to be 109.

B29: 5mer-642 (peptide)
peptide: RAWDR
In turn, B29 gave a Binding affinity (RU) in the assay with acetylcholine receptor [1] of 22 RU.

B30: 5mer-940 (peptide)
peptide: KCMGK
B30 had a Binding affinity (RU) with acetylcholine receptor [1] of 18 RU.

B31: WRRQRR (peptide)
peptide: WRRQRR
Consider B31, for which the Binding affinity (relative to RRQRR) (relative value to the RRQRR sequence) with acetylcholine receptor [2] turned out to be 138.

B32: RRQRRF (peptide)
peptide: RRQRRF
B32 registered a Binding affinity (relative to RRQRR) (relative value to the RRQRR sequence) with acetylcholine receptor [2] of 132.

B33: GRRQRR (peptide)
peptide: GRRQRR
For the molecule B33, the Binding affinity (relative to RRQRR) (relative value to the RRQRR sequence) in the assay with acetylcholine receptor [2] is 132.

B34: RRQRRD (peptide)
peptide: RRQRRD
B34 returned a Binding affinity (relative to RRQRR) (relative value to the RRQRR sequence) with acetylcholine receptor [2] of 65.

B35: 5mer-944 (peptide)
peptide: RYEFK
In turn, B35 came in with a Binding affinity (RU) with acetylcholine receptor [1] of 25 RU.

B36: 5mer-648 (peptide)
peptide: KNKKR
In the assay with acetylcholine receptor [1], B36 yielded a Binding affinity (RU) of 15 RU.

B37: 5mer-938 (peptide)
peptide: RIEFK
In the case of B37, in the assay with acetylcholine receptor [1], the Binding affinity (RU) is 18 RU.

B38: RRQRRY (peptide)
peptide: RRQRRY
Turning to B38, the Binding affinity (relative to RRQRR) (relative value to the RRQRR sequence) with acetylcholine receptor [2] is 105.

B39: TRRQRR (peptide)
peptide: TRRQRR
For B39, the Binding affinity (relative to RRQRR) (relative value to the RRQRR sequence) with acetylcholine receptor [2] is 103.

B40: RRQRRA (peptide)
peptide: RRQRRA
In the case of B40, the Binding affinity (relative to RRQRR) (relative value to the RRQRR sequence) with acetylcholine receptor [2] was found to be 113.

B41: RRQRRS (peptide)
peptide: RRQRRS
In turn, B41 yielded a Binding affinity (relative to RRQRR) (relative value to the RRQRR sequence) in the assay with acetylcholine receptor [2] of 113.

B42: FRRQRR (peptide)
peptide: FRRQRR
Take B42: in the assay with acetylcholine receptor [2], the Binding affinity (relative to RRQRR) (relative value to the RRQRR sequence) turned out to be 143.

B43: PRRQRR (peptide)
peptide: PRRQRR
Turning to B43, the Binding affinity (relative to RRQRR) (relative value to the RRQRR sequence) with acetylcholine receptor [2] turned out to be 133.

B44: 5mer-640 (peptide)
peptide: KNPHK
With B44, in the assay with acetylcholine receptor [1], the Binding affinity (RU) came out at 15 RU.

B45: RRQRRN (peptide)
peptide: RRQRRN
In the assay with acetylcholine receptor [2], B45 had a Binding affinity (relative to RRQRR) (relative value to the RRQRR sequence) of 109.

B46: 5mer-639 (peptide)
peptide: KETWK
B46 yielded a Binding affinity (RU) with acetylcholine receptor [1] of 13 RU.

B47: VRRQRR (peptide)
peptide: VRRQRR
With B47, the Binding affinity (relative to RRQRR) (relative value to the RRQRR sequence) with acetylcholine receptor [2] is 135.

B48: 5mer-946 (peptide)
peptide: KYPWR
As for B48, the Binding affinity (RU) in the assay with acetylcholine receptor [1] came out at 32 RU.

B49: YRRQRR (peptide)
peptide: YRRQRR
Turning to B49, the Binding affinity (relative to RRQRR) (relative value to the RRQRR sequence) with acetylcholine receptor [2] is 130.

B50: 5mer-937 (peptide)
peptide: KASNR
Consider B50, for which the Binding affinity (RU) with acetylcholine receptor [1] stood at 21 RU.

B51: 5mer-644 (peptide)
peptide: RMKWK
For B51, the Binding affinity (RU) with acetylcholine receptor [1] was determined as 24 RU.

B52: RRQRRW (peptide)
peptide: RRQRRW
The molecule B52 had a Binding affinity (relative to RRQRR) (relative value to the RRQRR sequence) with acetylcholine receptor [2] of 129.

B53: 5mer-945 (peptide)
peptide: RYEKR
For B53, in the assay with acetylcholine receptor [1], the Binding affinity (RU) was 23 RU.

B54: RRQRRH (peptide)
peptide: RRQRRH
B54 yielded a Binding affinity (relative to RRQRR) (relative value to the RRQRR sequence) with acetylcholine receptor [2] of 158.

B55: RRQRRL (peptide)
peptide: RRQRRL
B55 had a Binding affinity (relative to RRQRR) (relative value to the RRQRR sequence) in the assay with acetylcholine receptor [2] of 141.

B56: HRRQRR (peptide)
peptide: HRRQRR
On to B56, for which the Binding affinity (relative to RRQRR) (relative value to the RRQRR sequence) with acetylcholine receptor [2] was determined as 164.

B57: GRRGVRR (peptide)
peptide: GRRGVRR
In the assay with acetylcholine receptor [2], B57 yielded a Binding affinity (relative to RRGVRR) (value relative to the RRGVRR sequence) of 137.

B58: RRQRRK (peptide)
peptide: RRQRRK
As to B58, the Binding affinity (relative to RRQRR) (relative value to the RRQRR sequence) in the assay with acetylcholine receptor [2] came out at 175.

B59: 5mer-941 (peptide)
peptide: KNHHR
The molecule B59 came in with a Binding affinity (RU) with acetylcholine receptor [1] of 21 RU.

B60: KRRQRR (peptide)
peptide: KRRQRR
B60 yielded a Binding affinity (relative to RRQRR) (relative value to the RRQRR sequence) in the assay with acetylcholine receptor [2] of 173.

B61: RRQRRR (peptide)
peptide: RRQRRR
For B61, the Binding affinity (relative to RRQRR) (relative value to the RRQRR sequence) with acetylcholine receptor [2] was determined as 192.

B62: RRQRRC (peptide)
peptide: RRQRRC
In the assay with acetylcholine receptor [2], B62 returned a Binding affinity (relative to RRQRR) (relative value to the RRQRR sequence) of 126.

B63: 5mer-943 (peptide)
peptide: KDKGK
In the assay with acetylcholine receptor [1], B63 yielded a Binding affinity (RU) of 12 RU.

B64: 5mer-947 (peptide)
peptide: KDWIR
B64 gave a Binding affinity (RU) with acetylcholine receptor [1] of 27 RU.

B65: MRRQRR (peptide)
peptide: MRRQRR
Take B65: the Binding affinity (relative to RRQRR) (relative value to the RRQRR sequence) with acetylcholine receptor [2] was 119.
